Assay results as given in publication PMC7581431.

B1: Nkd1-BirA* [murine] / DVL1 [human (endogenous in Flp-In-T-REx-293)] (parent)
chain 1: MGKLHSKPAAVCKRRESPEGDSFAVSAAWARKGIEEWIGRQRCPGSVSGPRQLRLAGTVGRGTRELVGDTSREALGEEDEDDFPLEVALPPEKIDSLGSGDEKRMERLSEPGQASKKQLKFEELQCDVSVEEDSRQEWTFTLYDFDNNGKVTREDITSLLHTIYEVVDSSVNHSPTSSKTLRVKLTVAPDGSQSKRSVLFNHTDLQSTRPRADTKPAEELRGWEKKQRAPLRFQGDSHLEQPDCYHHCVDENIERRNHYLDLAGIENYTSQFGPGSPSVAQKSELPPRISNPTRSRSHEPEAAHIPHRRPQGVDPGSFHLLDTPFAKASELQQRLRGTQDGSKHFVRSPKAQGKNMGMGHGARGARSKPPLVPTTHTVSPSAHLATSPALLPTLAPLGHKKHKHRAKESQASCRGLQGPLAAGGSTVMGREQVRELPAVVVYESQAGQAVQRHEHHHHHEHHHHYHHFYQP
chain 2: MAETKIIYHMDEEETPYLVKLPVAPERVTLADFKNVLSNRPVHAYKFFFKSMDQDFGVVKEEIFDDNAKLPCFNGRVVSWLVLAEGAHSDAGSQGTDSHTDLPPPLERTGGIGDSRPPSFHPNVASSRDGMDNETGTESMVSHRRERARRRNREEAARTNGHPRGDRRRDVGLPPDSASTALSSELESSSFVDSDEDGSTSRLSSSTEQSTSSRLIRKHKRRRRKQRLRQADRASSFSSITDSTMSLNIVTVTLNMERHHFLGISIVGQSNDRGDGGIYIGSIMKGGAVAADGRIEPGDMLLQVNDVNFENMSNDDAVRVLREIVSQTGPISLTVAKCWDPTPRSYFTVPRADPVRPIDPAAWLSHTAALTGALPRYGTSPCSSAVTRTSSSSLTSSVPGAPQLEEAPLTVKSDMSAVVRVMQLPDSGLEIRDRMWLKITIANAVIGADVVDWLYTHVEGFKERREARKYASSLLKHGFLRHTVNKITFSEQCYYVFGDLCSNLATLNLNSGSSGTSDQDTLAPLPHPAAPWPLGQGYPYQYPGPPPCFPPAYQDPGFSYGSGSTGSQQSEGSKSSGSTRSSRRAPGREKERRAAGAGGSGSESDHTAPSGVGSSWRERPAGQLSRGSSPRSQASATAPGLPPPHPTTKAYTVVGGPPGGPPVRELAAVPPELTGSRQSFQKAMGNPCEFFVDIM
B2: Nkd1-BirA* [murine] / NBR1 [human (endogenous in Flp-In-T-REx-293)] (parent)
chain 1: B1 chain 1
chain 2: MEPQVTLNVTFKNEIQSFLVSDPENTTWADIEAMVKVSFDLNTIQIKYLDEENEEVSINSQGEYEEALKMAVKQGNQLQMQVHEGHHVVDEAPPPVVGAKRLAARAGKKPLAHYSSLVRVLGSDMKTPEDPAVQSFPLVPCDTDQPQDKPPDWFTSYLETFREQVVNETVEKLEQKLHEKLVLQNPSLGSCPSEVSMPTSEETLFLPENQFSWHIACNNCQRRIVGVRYQCSLCPSYNICEDCEAGPYGHDTNHVLLKLRRPVVGSSEPFCHSKYSTPRLPAALEQVRLQKQVDKNFLKAEKQRLRAEKKQRKAEVKELKKQLKLHRKIHLWNSIHGLQSPKSPLGRPESLLQSNTLMLPLQPCTSVMPMLSAAFVDENLPDGTHLQPGTKFIKHWRMKNTGNVKWSADTKLKFMWGNLTLASTEKKDVLVPCLKAGHVGVVSVEFIAPALEGTYTSHWRLSHKGQQFGPRVWCSIIVDPFPSEESPDNIEKGMISSSKTDDLTCQQEETFLLAKEERQLGEVTEQTEGTAACIPQKAKNVASERELYIPSVDLLTAQDLLSFELLDINIVQELERVPHNTPVDVTPCMSPLPHDSPLIEKPGLGQIEEENEGAGFKALPDSMVSVKRKAENIASVEEAEEDLSGTQFVCETVIRSLTLDAAPDHNPPCRQKSLQMTFALPEGPLGNEKEEIIHIAEEEAVMEEEEDEEDEEEEDELKDEVQSQSSASSEDYIIILPECFDTSRPLGDSMYSSALSQPGLERGAEGKPGVEAGQEPAEAGERLPGGENQPQEHSISDILTTSQTLETVPLIPEVVELPPSLPRSSPCVHHHGSPGVDLPVTIPEVSSVPDQIRGEPRGSSGLVNSRQKSYDHSRHHHGSSIAGGLVKGALSVAASAYKALFAGPPVTAQPIISEDQTAALMAHLFEMGFCDRQLNLRLLKKHNYNILQVVTELLQLNNNDWYSQRY
B3: Nkd1-BirA* [murine] / DVL2 (endogenous) [human (endogenous in Flp-In-T-REx-293)] (parent)
chain 1: B1 chain 1
chain 2: MAGSSTGGGGVGETKVIYHLDEEETPYLVKIPVPAERITLGDFKSVLQRPAGAKYFFKSMDQDFGVVKEEISDDNARLPCFNGRVVSWLVSSDNPQPEMAPPVHEPRAELAPPAPPLPPLPPERTSGIGDSRPPSFHPNVSSSHENLEPETETESVVSLRRERPRRRDSSEHGAGGHRTGGPSRLERHLAGYESSSTLMTSELESTSLGDSDEEDTMSRFSSSTEQSSASRLLKRHRRRRKQRPPRLERTSSFSSVTDSTMSLNIITVTLNMEKYNFLGISIVGQSNERGDGGIYIGSIMKGGAVAADGRIEPGDMLLQVNDMNFENMSNDDAVRVLRDIVHKPGPIVLTVAKCWDPSPQAYFTLPRNEPIQPIDPAAWVSHSAALTGTFPAYPGSSSMSTITSGSSLPDGCEGRGLSVHTDMASVTKAMAAPESGLEVRDRMWLKITIPNAFLGSDVVDWLYHHVEGFPERREARKYASGLLKAGLIRHTVNKITFSEQCYYVFGDLSGGCESYLVNLSLNDNDGSSGASDQDTLAPLPGATPWPLLPTFSYQYPAPHPYSPQPPPYHELSSYTYGGGSASSQHSEGSRSSGSTRSDGGAGRTGRPEERAPESKSGSGSESEPSSRGGSLRRGGEASGTSDGGPPPSRGSTGGAPNLRAHPGLHPYGPPPGMALPYNPMMVVMMPPPPPPVPPAVQPPGAPPVRDLGSVPPELTASRQSFHMAMGNPSEFFVDVM

Variants of: B1
Experiment: BioID proximity labeling (mass spectrometry)
Details: with DVL1 [human (endogenous in Flp-In-T-REx-293)]; +Wnt3a

Row | response (unweighted spectral counts) | Variant
1 | 127 | chain 1 MAKLHSKPAAVCKRRESPEGDSFAVSAAWARKGIEEWIGRQRCPGSVSGPRQLRLAGTVGRGTRELVGDTSREALGEEDEDDFPLEVALPPEKIDSLGSGDEKRMERLSEPGQASKKQLKFEELQCDVSVEEDSRQEWTFTLYDFDNNGKVTREDITSLLHTIYEVVDSSVNHSPTSSKTLRVKLTVAPDGSQSKRSVLFNHTDLQSTRPRADTKPAEELRGWEKKQRAPLRFQGDSHLEQPDCYHHCVDENIERRNHYLDLAGIENYTSQFGPGSPSVAQKSELPPRISNPTRSRSHEPEAAHIPHRRPQGVDPGSFHLLDTPFAKASELQQRLRGTQDGSKHFVRSPKAQGKNMGMGHGARGARSKPPLVPTTHTVSPSAHLATSPALLPTLAPLGHKKHKHRAKESQASCRGLQGPLAAGGSTVMGREQVRELPAVVVYESQAGQAVQRHEHHHHHEHHHHYHHFYQP [chain 1 G2A]

Variants of: B2
Experiment: BioID proximity labeling (mass spectrometry)
Details: with NBR1 [human (endogenous in Flp-In-T-REx-293)]; +Wnt3a

Row | response (unweighted spectral counts) | Variant
2 | 24 | chain 1 MAKLHSKPAAVCKRRESPEGDSFAVSAAWARKGIEEWIGRQRCPGSVSGPRQLRLAGTVGRGTRELVGDTSREALGEEDEDDFPLEVALPPEKIDSLGSGDEKRMERLSEPGQASKKQLKFEELQCDVSVEEDSRQEWTFTLYDFDNNGKVTREDITSLLHTIYEVVDSSVNHSPTSSKTLRVKLTVAPDGSQSKRSVLFNHTDLQSTRPRADTKPAEELRGWEKKQRAPLRFQGDSHLEQPDCYHHCVDENIERRNHYLDLAGIENYTSQFGPGSPSVAQKSELPPRISNPTRSRSHEPEAAHIPHRRPQGVDPGSFHLLDTPFAKASELQQRLRGTQDGSKHFVRSPKAQGKNMGMGHGARGARSKPPLVPTTHTVSPSAHLATSPALLPTLAPLGHKKHKHRAKESQASCRGLQGPLAAGGSTVMGREQVRELPAVVVYESQAGQAVQRHEHHHHHEHHHHYHHFYQP [chain 1 G2A]

Variants of: B3
Experiment: BioID proximity labeling (mass spectrometry)
Details: with DVL2 (endogenous) [human (endogenous in Flp-In-T-REx-293)]; +Wnt3a

Row | response (unweighted spectral counts) | Variant
3 | 303 | chain 1 MAKLHSKPAAVCKRRESPEGDSFAVSAAWARKGIEEWIGRQRCPGSVSGPRQLRLAGTVGRGTRELVGDTSREALGEEDEDDFPLEVALPPEKIDSLGSGDEKRMERLSEPGQASKKQLKFEELQCDVSVEEDSRQEWTFTLYDFDNNGKVTREDITSLLHTIYEVVDSSVNHSPTSSKTLRVKLTVAPDGSQSKRSVLFNHTDLQSTRPRADTKPAEELRGWEKKQRAPLRFQGDSHLEQPDCYHHCVDENIERRNHYLDLAGIENYTSQFGPGSPSVAQKSELPPRISNPTRSRSHEPEAAHIPHRRPQGVDPGSFHLLDTPFAKASELQQRLRGTQDGSKHFVRSPKAQGKNMGMGHGARGARSKPPLVPTTHTVSPSAHLATSPALLPTLAPLGHKKHKHRAKESQASCRGLQGPLAAGGSTVMGREQVRELPAVVVYESQAGQAVQRHEHHHHHEHHHHYHHFYQP [chain 1 G2A]
